Results reported in patent EP4527855A2.

Tests used:
[1] = target: 28mer peptide of the CXCR5 antigen; experiment: Antigen ELISA, relative EC50 against the reference; 100 mg/mL formulation, 12 months at -20°C
[2] = target: 28mer peptide of the CXCR5 antigen; experiment: Antigen ELISA, relative EC50 against the reference; 100 mg/mL formulation, 1 month at +25°C/60% RH
[3] = target: 28mer peptide of the CXCR5 antigen; experiment: Antigen ELISA, relative EC50 against the reference; 100 mg/mL formulation, 18 months at -20°C
[4] = target: 28mer peptide of the CXCR5 antigen; experiment: Antigen ELISA, relative EC50 against the reference; 100 mg/mL formulation, 6 months at +25°C/60% RH
[5] = target: 28mer peptide of the CXCR5 antigen; experiment: Antigen ELISA, relative EC50 against the reference; 100 mg/mL formulation, 3 months at +5°C
[6] = target: 28mer peptide of the CXCR5 antigen; experiment: Antigen-ELISA on the 28mer CXCR5 peptide, relative EC50 against the standard; DS in PBS, 3 months at -20°C
[7] = target: 28mer peptide of the CXCR5 antigen; experiment: Antigen ELISA, relative EC50 against the reference; 100 mg/mL formulation, +5°C study, initial
[8] = target: 28mer peptide of the CXCR5 antigen; experiment: Antigen-ELISA on the 28mer CXCR5 peptide, relative EC50 against the standard; DS in PBS, 1 month at -20°C
[9] = target: 28mer peptide of the CXCR5 antigen; experiment: Antigen ELISA, relative EC50 against the reference; 100 mg/mL formulation, 6 months at -20°C
[10] = target: 28mer peptide of the CXCR5 antigen; experiment: Antigen ELISA, relative EC50 against the reference; 100 mg/mL formulation, 15 months at +5°C
[11] = target: 28mer peptide of the CXCR5 antigen; experiment: Antigen-ELISA on the 28mer CXCR5 peptide, relative EC50 against the standard; DS in PBS, 1 month at 25°C
[12] = target: 28mer peptide of the CXCR5 antigen; experiment: Antigen ELISA, relative EC50 against the reference; 100 mg/mL formulation, +25°C/60% RH study, initial
[13] = target: 28mer peptide of the CXCR5 antigen; experiment: Antigen ELISA, relative EC50 against the reference; 100 mg/mL formulation, 6 months at +5°C
[14] = target: 28mer peptide of the CXCR5 antigen; experiment: Antigen ELISA, relative EC50 against the reference; 100 mg/mL formulation, 1 month at +5°C
[15] = target: 28mer peptide of the CXCR5 antigen; experiment: Antigen-ELISA on the 28mer CXCR5 peptide, relative EC50 against the standard; DS in PBS, 3 months at 25°C
[16] = target: 28mer peptide of the CXCR5 antigen; experiment: Antigen ELISA, relative EC50 against the reference; 100 mg/mL formulation, 3 months at +25°C/60% RH
[17] = target: 28mer peptide of the CXCR5 antigen; experiment: Antigen ELISA, relative EC50 against the reference; 100 mg/mL formulation, 9 months at -20°C
[18] = target: 28mer peptide of the CXCR5 antigen; experiment: Antigen-ELISA on the 28mer CXCR5 peptide, relative EC50 against the standard; DS in PBS, 1 month at 5°C
[19] = target: 28mer peptide of the CXCR5 antigen; experiment: Antigen ELISA, relative EC50 against the reference; 100 mg/mL formulation, 9 months at +5°C
[20] = target: 28mer peptide of the CXCR5 antigen; experiment: Antigen ELISA, relative EC50 against the reference; 100 mg/mL formulation, 1 month at -20°C
[21] = target: 28mer peptide of the CXCR5 antigen; experiment: Antigen ELISA, relative EC50 against the reference; 100 mg/mL formulation, 3 months at -20°C
[22] = target: 28mer peptide of the CXCR5 antigen; experiment: Antigen ELISA, relative EC50 against the reference; 100 mg/mL formulation, -20°C study, initial
[23] = target: 28mer peptide of the CXCR5 antigen; experiment: Antigen ELISA, relative EC50 against the reference; 100 mg/mL formulation, 12 months at +5°C
[24] = target: 28mer peptide of the CXCR5 antigen; experiment: Antigen ELISA, relative EC50 against the reference; 100 mg/mL formulation, 18 months at +5°C
[25] = target: 28mer peptide of the CXCR5 antigen; experiment: Antigen-ELISA on the 28mer CXCR5 peptide, relative EC50 against the standard; DS in PBS, 3 months at 5°C
[26] = target: 28mer peptide of the CXCR5 antigen; experiment: Antigen-ELISA on the 28mer CXCR5 peptide, relative EC50 against the current antibody standard; DS in PBS, release

- Potency (Antigen ELISA), EC50 value in comparison to reference [1]: 96%
- Potency (Antigen ELISA), EC50 value in comparison to reference [2]: 121%
- Potency (Antigen ELISA), EC50 value in comparison to reference [3]: 127%
- Potency (Antigen ELISA), EC50 value in comparison to reference [4]: 104%
- Potency (Antigen ELISA), EC50 value in comparison to reference [5]: 95%
- Ag-ELISA EC50 % (relative to standard) [6]: 93%
- Potency (Antigen ELISA), EC50 value in comparison to reference [7]: 75%
- Ag-ELISA EC50 % (relative to standard) [8]: 132%
- Potency (Antigen ELISA), EC50 value in comparison to reference [9]: 96%
- Potency (Antigen ELISA), EC50 value in comparison to reference [10]: 114%
- Ag-ELISA EC50 % (relative to standard) [11]: 106%
- Potency (Antigen ELISA), EC50 value in comparison to reference [12]: 75%
- Potency (Antigen ELISA), EC50 value in comparison to reference [13]: 97%
- Potency (Antigen ELISA), EC50 value in comparison to reference [14]: 105%
- Ag-ELISA EC50 % (relative to standard) [15]: 108%
- Potency (Antigen ELISA), EC50 value in comparison to reference [16]: 96%
- Potency (Antigen ELISA), EC50 value in comparison to reference [17]: 101%
- Ag-ELISA EC50 % (relative to standard) [18]: 83%
- Potency (Antigen ELISA), EC50 value in comparison to reference [19]: 92%
- Potency (Antigen ELISA), EC50 value in comparison to reference [20]: 107%
- Potency (Antigen ELISA), EC50 value in comparison to reference [21]: 84%
- Potency (Antigen ELISA), EC50 value in comparison to reference [22]: 75%
- Potency (Antigen ELISA), EC50 value in comparison to reference [23]: 93%
- Potency (Antigen ELISA), EC50 value in comparison to reference [24]: 119%
- Ag-ELISA EC50 % (relative to standard) [25]: 112%
- Ag-ELISA EC50 % (relative to standard) [26]: 100%
B1: Lead CXCR5 Antibody (humanized IgG4 anti-CXCR5 antibody comprising a heavy chain of SEQ ID NO: 25 and a light chain of SEQ ID NO: 26) (antibody, V domains shown)
VH: QVQLKESGPGLVAPSESLSITCTVSGFSLIDYGVNWIRQPPGKGLEWLGVIWGDGTTYYNPSLKSRLSISKDNSKSQVFLKVTSLTTDDTAMYYCARIVYWGQGTLVTVSA
VL: DIVMTQAAPSVAVTPGASVSISCRSSKSLLHSSGKTYLYWFLQRPGQSPQLLIYRLSSLASGVPDRFSGSGSGTAFTLRISRVEAEDVGVYYCMQHLEYPYTFGGGTKLEIKR
